Results published in the supplement of paper PMC9170038.

System: MS2 coat protein
Experiment: apparent KD of MS2 coat protein; designed switch direction (-1 OFF switch, 1 ON switch): -1; higher = weaker reporter binding
How it was run: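 Transcription of designed RNA switches on Illumina chips was done by stalled E. coli RNA polymerase. SNAP-549-labelled MS2 coat protein was then titrated in doubling steps from 0.7 or 1.5 nM to 3 µM, with steps of 0.8–1.5 h at the lowest and 10–20 min at the highest concentration. The per-design median over clusters of curve-fitted normalised fluorescence is reported as apparent KD.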

[1] = Eterna round: R95, input ligand: microRNA oligo, concentration not stated
[2] = Eterna round: R95, input ligand: FMN 200 uM
[3] = Eterna round: R95, input ligand: none
[4] = input ligand: microRNA oligo, concentration not stated

Which results are given for “CCCGGGCUUGUGAGGAUAUGCGCGCGGAAAUGUGUGUAGAAGGCACAUGAGGAUCACCCAUGUAAGGGCCCGGG [-32.4, -30.4 kcal, A 23%, 6-0] (Eterna round: R97, puzzle: Brourd's mod of Exclusion 4)”?
apparent KD of MS2 coat protein (input ligand: FMN 200 uM): 19.3 nM; apparent KD of MS2 coat protein (input ligand: none): 148 nM

How did the “apparent KD of MS2 coat protein” value [1] turn out when “CUGAGCUGAGGAUAUACAUGAGGAUCACCCAUGUGUUGGAGCUUGCGUACAGGCAGAUGUAGAAGGCAGUUCGG [JL-ex3-3.32 Brourd mod] (puzzle: Exclusion 3)” was run?
Its value is 19.5 nM.

What does the source list for “CUGGUCCGAGGAUAUAUAUUGUGAUACAUGAGGAUCACCCAUGUAAUAAUAUGGAUAUAAAUAGAAGGCGGACUAG [Mat - Exclusion 5 - JL mod - D49] (puzzle: Exclusion 5)”?
apparent KD of MS2 coat protein [2]: 35.8 nM; apparent KD of MS2 coat protein [1]: 23 nM; apparent KD of MS2 coat protein [3]: 27.7 nM

With “GCAGAUCACGUGAGGAUAUCGUCUACCUCGGUAGUCGAGAAGGCACAUGAGGAUCACCCAUGUGAGUGAUCUGC [Omei Ex4B B2] (Eterna round: R97, puzzle: Brourd's mod of Exclusion 4)” as the sequence, how does the “apparent KD of MS2 coat protein” value (input ligand: FMN 200 uM) read?
Its value is 13.6 nM.

What about the “apparent KD of MS2 coat protein” value (input ligand: none) of the same sequence?
Its value is 17.6 nM.

Which “apparent KD of MS2 coat protein” value [1] does the source give for “UUUGUUGUUGUGAGGAUAUACUGUUUGUUUUGUUUGUAGAAGGUACAUGAGGAUCACCCAUGUUGGUUGUUUUU [JR_BME4_Sub030] (puzzle: Brourd's mod of Exclusion 4)” here?
The value was 24.3 nM.

For “CCCGGGUCAGGAUAUGGGCCCGGGCCCGAAAGGGCCCGGGCCCAGAAGGGACAUGAGGAUCACCCAUGUCCGGG [-53.1, -50.9 kcal, 20% A] (Eterna round: R97, puzzle: Exclusion 4)”, which “apparent KD of MS2 coat protein” value (input ligand: FMN 200 uM) is on record?
Its value is 26.7 nM.

What about the “apparent KD of MS2 coat protein” value (input ligand: none) of the same sequence?
Its value is 24.3 nM.

Which results are given for “AUAAGUAUAUAGGAUAUCUAGCUGGUAACAGCUAGAGAAGGAUGUACAUGAGGAUCACCCAUGUAAAUCGAUCA [Ex6/10-A2] (Eterna round: R97, puzzle: Exclusion 6)”?
apparent KD of MS2 coat protein (input ligand: FMN 200 uM): 18.5 nM; apparent KD of MS2 coat protein (input ligand: none): 18.1 nM

For “UUUUUCAGGCCAGAUCCUCACAUGAGGAUCACCCAUGUGCUCGUCUGUUUUCGCACUAGCUUUUUUUUGGUAGUGCU [Level Boss var2-15] (puzzle: Sensor v3, turn-off variant 1)”, which “apparent KD of MS2 coat protein” value [2] is on record?
The value was 280 nM.

And the “apparent KD of MS2 coat protein” value [1]?
Its value is 28.4 nM.

And the “apparent KD of MS2 coat protein” value [3]?
Its value is 325 nM.

What does the source list for “AGCCACAGAGGAUAUACAUACAUCCAGUAGUUGAGAAGACUACAUGAGGAUCACCCAUGUAGAAGGCUGUGGCA [Omei Ex2 BD B3] (Eterna round: R97, puzzle: Exclusion 2)”?
apparent KD of MS2 coat protein (input ligand: FMN 200 uM): 95.5 nM; apparent KD of MS2 coat protein (input ligand: none): 395 nM

Which “apparent KD of MS2 coat protein” value (input ligand: FMN 200 uM) does the source give for “UUUUACAAGCUAAGAUCCUACAUGAGGAUCACCCAUGUGGUCCGGUGACGUGAGUCACCGGACUUAGCUCGUCUUGA [salish99_S_TOV1_R5_085] (Eterna round: R97, puzzle: Sensor, turn-off variant 1)” here?
The value was 38.9 nM.

What about the “apparent KD of MS2 coat protein” value (input ligand: none) of the same sequence?
Its value is 40.4 nM.

How did the “apparent KD of MS2 coat protein” value [1] turn out when “UGUGCGUAUGUGAGGAUAUGCUGGUCCUUGGAUCGGCAGAAGGCACAUGAGGAUCACCCAUGUGGUGUCGUACC [salish99_Bmod_ex4_075] (puzzle: Brourd's mod of Exclusion 4)” was run?
Its value is 154 nM.

“GUGACACAUGAGGAUCACCCAUGUGAGGAUAUAUCCGACUAUGAAAGGGUGUAGCAGGAUAGAAGGUACUGGCG [Eternabot (L2) Solution 54] (Eterna round: R97, puzzle: Exclusion 1)” was tested. Which “apparent KD of MS2 coat protein” value (input ligand: FMN 200 uM) did it give?
Its value is 83.1 nM.

And the “apparent KD of MS2 coat protein” value (input ligand: none)?
Its value is 104 nM.

Which “apparent KD of MS2 coat protein” value [2] does the source give for “UCGAGGUCAGGAUAUACAUGAGGAUCACCCAUGUGGAUGUAAGGUAGGAGAAGAGUAGGUAGAAGGGACGAGAG [JR_Exclu3_Sub049] (puzzle: Exclusion 3)” here?
Its value is 46.7 nM.

What about the “apparent KD of MS2 coat protein” value [1] of the same sequence?
Its value is 37.8 nM.

And the “apparent KD of MS2 coat protein” value [3]?
Its value is 55.4 nM.

With “CCUAGUUGGUAAGGAUAUCCUACACUGUUCUGACCCGGGCAAGCUACAUGAGGAUCACCCAUGUGGGAGAAGGUGCGUCAACGC [Design 13] (Eterna round: R96, puzzle: Exclusion NG 2)” as the sequence, how does the “apparent KD of MS2 coat protein” value (input ligand: FMN 200 uM) read?
The value was 30.8 nM.

What about the “apparent KD of MS2 coat protein” value [4] of the same sequence?
The value was 22.2 nM.

What about the “apparent KD of MS2 coat protein” value (input ligand: none) of the same sequence?
Its value is 31.2 nM.

What does the source list for “GCAAGCUUAAUCUGUAUGAACAUGAGGAUCACCCAUGUAUAAGGUAAUUCUUUUGGGUUUUUUAUUGCUCGUCUUAU [JR_STOV1_Sub025] (Eterna round: R97, puzzle: Sensor, turn-off variant 1)”?
apparent KD of MS2 coat protein (input ligand: FMN 200 uM): 189 nM; apparent KD of MS2 coat protein (input ligand: none): 210 nM

What does the source list for “AGUUGGCGAGGAUAUACAUGAGGAUCACCCAUGUGAGAGAUACGAGUGAGGUCGAUUAGUAGAAGGCGCUGACA [Mat X3R4 m14] (Eterna round: R97, puzzle: Exclusion 3)”?
apparent KD of MS2 coat protein (input ligand: FMN 200 uM): 984 nM; apparent KD of MS2 coat protein (input ligand: none): 161 nM

What does the source list for “AAGUACCGUCACGAUAGUGAUGGUACAACAAGCAGGUGAACAUGAGGAUCACCCAUGUCCUCAAUUGCUCGUCUUAU [Sensor 3 - 73] (puzzle: Sensor v3, turn-off variant 2)”?
apparent KD of MS2 coat protein [2]: 156 nM; apparent KD of MS2 coat protein [1]: 48.3 nM; apparent KD of MS2 coat protein [3]: 159 nM

“GCUGGUCAAGGAUAUACAAUCGUGCUUCGGCACGUAAGAUCACAUGAGGAUCACCCAUGUAGAAGGUGACCAGC [E2/1-C1] (Eterna round: R97, puzzle: Exclusion 2)” was tested. Which “apparent KD of MS2 coat protein” value (input ligand: FMN 200 uM) did it give?
Its value is 507 nM.

And the “apparent KD of MS2 coat protein” value (input ligand: none)?
Its value is 37.2 nM.

With “AACGUGUAAGGAUAUGCUGCUCGUCACGAAAGUGAUGAGUAGCAGAAGGUACAUGAGGAUCACCCAUGUAAAGA [Exclusion 4.1f (Exclusion4-cac2 - changed GC at 6/50 to AU )] (Eterna round: R96, puzzle: Exclusion 4)” as the sequence, how does the “apparent KD of MS2 coat protein” value (input ligand: FMN 200 uM) read?
The value was 91.6 nM.

What about the “apparent KD of MS2 coat protein” value [4] of the same sequence?
Its value is 19 nM.

What about the “apparent KD of MS2 coat protein” value (input ligand: none) of the same sequence?
The value was 22.2 nM.

Which results are given for “GGCCUCGCGGUCAGGAUAUAUUGCUGUAAUCAGUGGUAGAAGGGACAUGAGGAUCACCCAUGUACCUAGGACAU [BmEX4 C.20] (Eterna round: R97, puzzle: Brourd's mod of Exclusion 4)”?
apparent KD of MS2 coat protein (input ligand: FMN 200 uM): 33.4 nM; apparent KD of MS2 coat protein (input ligand: none): 18.9 nM

For “CUAGUAUAUCAGGAUAUGAUUUUAUAUAGUUGAUCAGAAGGGAUAACAUGAGGAUCACCCAUGUUAAGGAGUGA [JR_Ex6_Sub042] (Eterna round: R97, puzzle: Exclusion 6)”, which “apparent KD of MS2 coat protein” value (input ligand: FMN 200 uM) is on record?
Its value is 99.2 nM.

And the “apparent KD of MS2 coat protein” value (input ligand: none)?
Its value is 38.7 nM.

What does the source list for “CUCGUGUGAGGAUAUUCACACCCGUCAAAACAACGGACAAAGAAGAAGGCACAUGAGGAUCACCCAUGUAAAGA [Usenisor] (Eterna round: R97, puzzle: Exclusion 4)”?
apparent KD of MS2 coat protein (input ligand: FMN 200 uM): 92.1 nM; apparent KD of MS2 coat protein (input ligand: none): 106 nM

With “AGAUCACAUGAGGAUCACCCAUGUGAGGAUAUAGACUGAAGAGCUUCGGCUCUUCAGUCUAGAAGGCACUAUGA [EX1 #45] (Eterna round: R97, puzzle: Exclusion 1)” as the sequence, how does the “apparent KD of MS2 coat protein” value (input ligand: FMN 200 uM) read?
Its value is 28.9 nM.

What about the “apparent KD of MS2 coat protein” value (input ligand: none) of the same sequence?
The value was 25.9 nM.

“AAGCCUGGCUCAGGAUAUACAUGAGGAUCACCCAUGUUCUCAGUGAGGCAAGAUAACAACACGACGUAGAAGGGAGCUAGGCCG [Eternabot solution 5] (Eterna round: R96, puzzle: Exclusion NG 2)” was tested. Which “apparent KD of MS2 coat protein” value (input ligand: FMN 200 uM) did it give?
The value was 81.7 nM.

What about the “apparent KD of MS2 coat protein” value [4] of the same sequence?
The value was 17.9 nM.

And the “apparent KD of MS2 coat protein” value (input ligand: none)?
Its value is 40 nM.

For “CAGUACUGAGGAUAUACAUGAGGAUCACCCAUGUGUUCCAGCUUGGAAACUAGCAAAAGUAGAAGGCAGUACUG [salish99_ex3_r3_097x] (puzzle: Exclusion 3)”, which “apparent KD of MS2 coat protein” value [1] is on record?
Its value is 16.6 nM.

For “AGCUAGGCAGGAUAUACAUGAGGAUCACCCAUGUAAAUUUUUCGUUUAACUUGAAUGUGUAGAAGGGCCAUAAA [Ex3 #51] (Eterna round: R97, puzzle: Exclusion 3)”, which “apparent KD of MS2 coat protein” value (input ligand: FMN 200 uM) is on record?
Its value is 23.9 nM.

And the “apparent KD of MS2 coat protein” value (input ligand: none)?
Its value is 22.4 nM.
